Measurements as given in article PMC11676761, “Mining and Characterization of Amylosucrase from Calidithermus terrae for Synthesis of α-Arbutin Using Sucrose” (International Journal of Molecular Sciences, 2024).

Substrate: OC[C@H]1O[C@@](CO)(O[C@H]2O[C@H](CO)[C@@H](O)[C@H](O)[C@H]2O)[C@@H](O)[C@@H]1O
Assay: DNS assay of released fructose, Lineweaver-Burk
Assay type: biochemical, Calidithermus terrae
Conditions: 42.0 °C

B1: (Calidithermus terrae) (protein)
chain: MFSTPLPAELRPLLERLLVQAESDLSGSDLETFSLRLERYLPDLHAGLAAVYPDVEGLLERLLPVLTAAHRARPAGLKRLDAHRLLAPDWFQRPEMIAYVAYTERFAGTLKGIEERLDYLEELGVRYLHLMPFLKPRPAPHDGGYAVMDYRAVREDLGSMDDLEALTAKLRARGIALCCDLVLNHVAQEHEWAVRARAGEARYQHYFHMFPDRTLPDEYEKTLPEVFPDFAPGNFTFDEASGKWVWTTFNRWQWDLNWANPAVFLEFADLILWLANRGVEVFRLDAIAFIWKRLGTNCQNQPEVHAITQALRAVARVVAPAVLFKAEAIVAPDDLIHYLGQGEHFGLVSDTAYHNSLMVQIWSSLASRDVRLMSEALRRFPVKPTNTAWNTYLRCHDDIGWAIADDDAARVGLSGEAHRRFLSDYYSGRFPTSPSRGLVFQENPRTGDRRISGSGASLAGLEQALEQNDPRQVHLSLERLLLGHAVVLGFGGIPLLYMGDELALLNDYSYLEEPEHAEDNRWVHRPHMDWDKAARAKADPASTEGRMYHGLLHLIRVRRATPHFHAAIEAQILEPRNPHVFGYVRRHPLGNLVALYNFSEEVQYYPAEVLWQQGLSLPHDRIGGQLVPIERHLVRLEPYARLWITDEV
Km: 89.39 mM
kcat: 86.3995 s⁻¹
